Values joined by “and” are separate entries in the source; they are usually repeats but may differ in a detail not shown here. Equal entries are not always repeated.

Test in all cases: BLI
A general note: BLI is a label-free optical method that tracks binding on a fibre tip over time.

In assay [1] the target is T1, COBRA P1 HA wild type, CHO expressed, for binding assays (glycosylation at Asn127).
Assay [2] concerns the target COBRA P1 HA N127D mutant, CHO expressed, for binding assays.
Assay [3] has as its target T1, COBRA P1 HA wild type, CHO expressed, …. This is another data set of the same source.

B1: Fab 1F8 (recombinant Fab of the P1-elicited mouse monoclonal antibody 1F8) (Fab, V domains shown)
VH: QVQLQQSGAELMKPGASVKISCKATGYTFSSYWIEWVKQRPGHGLEWIGEILPGSGRTNYDERFKGKATFTADTSSNTAYMQLSSLTSEDSAVYYCARPRIYGMDYWGQGTSVTVSS
VL: DIVLTQSPASLAVSLGQRATISCKASQSVDFDGDTYMSWYQQKPGQPPKLLIYAASKLESGIPARFSGSGSGTDFTLNIHPVEEEDAATYFCQQSNEDPWTFGGGTKLEIK
As for B1, the Kd in assay [1] is 2.56 nM and 3.35 nM. Moreover, the koff in assay [2] is 0.000855 s⁻¹; in assay [3] it was 0.000813 s⁻¹.

What is called Kd is the concentration at which binding is half-saturated. As a reminder, the koff is the rate constant with which the complex falls apart.

For the origin of these results see paper PMC10126545 (2023).
